Changes are numbered by the printed parent chain.
T1: 17-residue MSLN C terminus peptide (human)
T1 chain: IPNGYLVLDLSMQEALS

B1: Fab fragment of mAb 15B6 (Fab, V domains shown)
VH: EVQLQQSGPVLVKPGASVKISCKASGYSFTGYYMHWVRQSNGKSLEWIGRINPYTGVPSYKHNFKDKASLTVDKSSSTAYMELHSLTSEDSAVYYCARELGGYWGQGTTLTVSS
VL: QAVVTQESALTTSPGETVTLTCRSSTGAVTTGNYPNWVQEKPDHLFTGLIAGTNNRAPGVPARFSGSLIGDKAALTITGAQTEDEAIYFCALWFSSHWVFGGGTKLTVL
B2: monoclonal antibody (mAb) 15B6 (antibody, V domains shown)
VH: B1 VH with N41L, G42V, S44R
VL: B1 VL

Experiments:
[1] = target: T1, 17-residue MSLN C terminus peptide; assay: crystal structure
MSLN 296 to 591 = MSLN 296 to 591 (Homo sapiens (Human)., UniProt Q13421-3); assay: BLI
MSLN–585-his = MSLN–585-his (Homo sapiens (Human)., UniProt Q13421-3); assay: ELISA

Binder	binding result [1]	binding result (MSLN 296 to 591)	binding result (MSLN–585-his)
B1	binds	no binding	–
B2	–	–	no binding

Reference: paper PMC9171807 (Proceedings of the National Academy of Sciences of the …, 2022)
